Here are results for one molecule from US20230034906A1 (TRINOMAB BIOTECH, published 2023).

In this assay the target is T1, homologous sequence of gB glycoprotein of 56 virus strains (gB_Con. Strain) (human cytomegalovirus (homologous …, UniProt P06473 25-699)).
T1 construct: C-terminal tags are part of the entry
T1 chain: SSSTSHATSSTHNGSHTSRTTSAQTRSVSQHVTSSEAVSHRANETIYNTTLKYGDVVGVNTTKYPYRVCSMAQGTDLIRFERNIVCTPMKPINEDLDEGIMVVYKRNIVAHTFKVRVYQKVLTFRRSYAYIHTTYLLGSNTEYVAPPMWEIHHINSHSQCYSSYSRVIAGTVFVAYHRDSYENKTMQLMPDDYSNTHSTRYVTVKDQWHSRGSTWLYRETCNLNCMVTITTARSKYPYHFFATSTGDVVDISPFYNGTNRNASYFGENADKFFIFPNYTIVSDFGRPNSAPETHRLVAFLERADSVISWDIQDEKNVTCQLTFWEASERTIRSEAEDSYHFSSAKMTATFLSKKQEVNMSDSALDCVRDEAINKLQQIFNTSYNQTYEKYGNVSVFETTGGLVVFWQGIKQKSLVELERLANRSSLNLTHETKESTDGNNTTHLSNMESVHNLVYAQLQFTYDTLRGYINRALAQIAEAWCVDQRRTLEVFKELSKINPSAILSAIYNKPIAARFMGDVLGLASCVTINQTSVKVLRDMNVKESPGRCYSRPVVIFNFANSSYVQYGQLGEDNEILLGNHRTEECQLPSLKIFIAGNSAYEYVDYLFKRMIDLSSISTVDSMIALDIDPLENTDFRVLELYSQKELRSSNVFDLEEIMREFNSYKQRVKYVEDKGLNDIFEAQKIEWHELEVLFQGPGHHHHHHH
Put plainly: ELISA, HEK293 culture supernatant on gB. On the technique in general: An ELISA detects its analyte on a solid surface through an enzyme-linked reagent.

B1: TRN1019 (antibody, V domains shown)
VH: QVQLVQSGAEVKKPGESLKISCKGSGYTFTNYWIGWVRQMPGAGLEWMAIIFPRDSYSAYSPSFQGRVTISVDKSISTAYLHWSSLEASDTAVYYCAIYNDLRSGNSWGQGTPLIVSS
VL: DIQMTQSPSSLSASVGDRVTITCRASQSITKYLNWYQQKPGRAPKLLIHTTSTLQSGVPSRFSGSGSGTDFTLTISSLQLEDFGTYYCQQSFSTLWTFGQGTKLDIKR
notes: Fully human antibody; kappa light chain
For the molecule B1, the binding result is on record as “binds”.
